Article PMC6013494, “Dual recognition of H3K4me3 and H3K27me3 by a plant histone reader SHL” (Nature Communications, 2018)
“Also recorded” adds a separate entry of the source. Blank lines part the entries; values can stand above or below the molecule they belong to. No end group written: not given here. Me3 = trimethyl-lysine; Me2 = dimethyl-lysine

B1: SHL from Populus trichocarpa (PtSHL), wild type (natural protein)
chain: SMAKAKAPRRTLDSYTVKPINKTVKPGDCVLMRPSDPSKPSYVAKIERIESDGRGPNVRVRVRWYYRPEESIGGRRQFHGSKEVFLSDHYDTQSADTIEGKCMVHSFKNYTKLDAVGNDDFFCRFEYNSSTGAFNPDRVAVYCKCEMPYNPDDLMVQCEGCSDWFHPACIEMSAEEAKRLDHFFCENCSSEGQKKLQNSHNTRQSDAKAETKRRRR

Columns and labels:
PtSHL D90A = assay: ITC, PtSHL D90A; parameters: species or system Populus trichocarpa; conditions: 20 °C, pH 8.0, NDB, no detectable binding
Procedure: (§1) The full-length AtSHL was cloned into a pET-Sumo vector to fuse a hexahistidine-sumo tag to the target protein. The plasmids were transformed into Escherichia coli strain BL21(DE3) RIL (Stratagene). The protein expression was induced by adding IPTG to a final concentration of 0.2 mM upon the OD600 of cell culture reaching to 0.7, followed by overnight induction at 20 °C. The recombinant protein was purified using a HisTrap column (GE Healthcare). The hexahistidine-sumo tag was cleaved by ulp1 protease and removed by a second step HisTrap column. The AtSHL protein was further purified using a Superdex G200 column (GE Healcare). The PtSHL was cloned, expressed, and purified using the same strategy as AtSHL. All mutant versions of SHL were generated using a PCR based method and expressed and purified using the same protocol as wild type SHL protein. The peptides were purchased from the GL Biochem Company (Shanghai).
(§2) The interaction between SHL and histone peptides was monitored on a Microcal PEAQ-ITC instrument (Malvern) at 20 °C. An additional artificial tyrosine residue was added to the C-terminus of the peptide in the ITC experiment for accurately measuring the concentration of peptide by OD280. The protein was dialyzed against a buffer of 100 mM NaCl and 20 mM Tris-HCl, pH 8.0 for 3 h and the lyophilized peptides were dissolved into the same buffer. […]

PtSHL H88A = assay: ITC, PtSHL H88A; parameters: species or system Populus trichocarpa; conditions: 20 °C, pH 8.0, NDB, no detectable binding
Procedure: as §1, §2

full-length AtSHL [1] = assay: Histone peptide pulldown, full-length AtSHL; format: binding, Arabidopsis thaliana; conditions: biotinylated histone peptides, 2 μg GST-tagged SHL, 50 mM Tris-HCl, pH 8.0, 300 mM NaCl, 3 h at 4 °C; anti-GST immunoblot
Procedure: The […] biotinylated histone peptides were first incubated with 62.5 μl magnetic streptavidin bead slurry (NEB) pre-washed with 1 ml peptide binding buffer (50 mM Tris-HCl, pH 8.0, 300 mM NaCl, 0.1% Nonidet P-40) for 1 h at 4 °C. The peptide-bound beads were washed twice with 1 ml of peptide binding buffer and then incubated with 2 μg GST-tagged SHL proteins in the peptide binding buffer for 3 h at 4 °C. After washing three times with binding buffer, protein-bead complex was boiled in 1XSDS loading buffer (50 mM Tris-HCl, pH 6.8, 2% sodium dodecyl sulfate, 0.01% bromophenol blue, 2 mM dithiothreitol and 2 mM β-mercaptoethanol), subjected to SDS-PAGE gel, and detected with an anti-GST antibody (CAB4169, Thermo Fisher, 1:3000). The raw images of the western blots can be found in Supplementary Fig. 6a.

PtSHL + H3K4me3 = biological target: T1, PtSHL + H3K4me3 (Populus trichocarpa, UniProt B9H0V2); assay: Competitive ITC, PtSHL pre-saturated with 2-fold excess H3(1-15)K4me3; conditions: ITC binding stoichiometry
T1 sequence (B9H0V2 1-215): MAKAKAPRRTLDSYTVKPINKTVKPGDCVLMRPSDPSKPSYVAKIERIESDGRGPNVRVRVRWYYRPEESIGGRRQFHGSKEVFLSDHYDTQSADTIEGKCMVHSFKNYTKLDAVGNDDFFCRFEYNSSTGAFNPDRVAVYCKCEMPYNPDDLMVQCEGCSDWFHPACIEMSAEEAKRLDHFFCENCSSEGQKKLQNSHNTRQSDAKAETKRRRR
Procedure: To further investigate the binding mechanism of H3K4me3 and H3K27me3 by the two domains of SHL, we performed competitive binding assays.
The interaction between SHL and histone peptides was monitored on a Microcal PEAQ-ITC instrument (Malvern) at 20 °C. An additional artificial tyrosine residue was added to the C-terminus of the peptide in the ITC experiment for accurately measuring the concentration of peptide by OD280. The protein was dialyzed against a buffer of 100 mM NaCl and 20 mM Tris-HCl, pH 8.0 for 3 h and the lyophilized peptides were dissolved into the same buffer. The titration data were fit using the program Origin 7.0.

PtSHL = assay: ITC, PtSHL (wild type) with histone peptides; parameters: species or system Populus trichocarpa; conditions: Microcal PEAQ-ITC, 20 °C, 100 mM NaCl, 20 mM Tris-HCl, pH 8.0, peptide with additional C-terminal tyrosine, PtSHL WT, NDB, no detectable binding
Procedure: as §1, §2

full-length AtSHL [2] = assay: Histone peptide microarray, full-length AtSHL; format: binding, Arabidopsis thaliana; conditions: 500 nM GST-tagged SHL, 50 mM HEPES, pH 7.5, 50 mM NaCl, RT, 2 h; anti-GST, fluorescence 635 nm; average of three replicate spots
Procedure: Peptide microarray assay was performed as following a previous study. Specifically, the peptide array slide was blocked with blocking solution (1 × PBS, 0.05% Tween-20 pH 7.4, 1% BSA) at 4 °C overnight. After washing three times with 1 ml TTBS buffer (10 mM Tris-HCl, pH 7.5, 150 mM NaCl, 0.05% Tween-20), the slide was incubated with 500 nM GST-tagged recombinant SHL in 1 ml binding buffer (50 mM HEPES, pH 7.5, 50 mM NaCl, 5% glycerol, 0.4% BSA, 2 mM DTT) at RT for 2 h. The slide was then washed with TTBS three times and incubated with an anti-GST antibody (Thermo Fisher, CAB4169, 1:3000 dilution) in TBS with 1% BSA for 1 h at RT. After washing with TTBS three times, the slide was incubated with an anti-rabbit IRDye 650 secondary antibody (LI-COR, P/N 926-65020, 1:5000 dilution) in 1 ml TBS buffer with 1% BSA for 1 h. The slide was washed with TTBS three times, dried by centrifugation, and imaged at dual wavelengths of 532 and 635 nm on Axon GenePix 4000B (Molecular Devices). The laser power was set to 100%, with automatic gain adjustment (0.05% saturation tolerance) for dual photomultipliers. […] Signal intensities were quantified by GenePix Pro 6.1 software (Molecular Devices). […] For each peptide species, an average was calculated from three replicate spots. […]

PtSHL Y65A = assay: ITC, PtSHL Y65A; parameters: species or system Populus trichocarpa; conditions: 20 °C, pH 8.0, NDB, no detectable binding
Procedure: as §1, §2

PtSHL Y41A = assay: ITC, PtSHL Y41A; parameters: species or system Populus trichocarpa; conditions: 20 °C, pH 8.0, NDB, no detectable binding
Procedure: as §1, §2

PtSHL W63A = assay: ITC, PtSHL W63A; parameters: species or system Populus trichocarpa; conditions: 20 °C, pH 8.0, NDB, no detectable binding
Procedure: as §1, §2

[3] = biological target: Arabidopsis SHORT LIFE (AtSHL), full length, tag removed (Arabidopsis) (UniProt Q9FEN9); assay: ITC; Microcal PEAQ-ITC, 20 °C; 100 mM NaCl, 20 mM Tris-HCl pH 8.0; protein titrated by peptide
[4] = biological target: SHL from Populus trichocarpa (PtSHL), wild type (Populus trichocarpa); assay: ITC; PtSHL pre-saturated with 2-fold excess H3(20-36)K27me3 peptide, titrated by H3(1-15)K4me3 peptide; 20 °C, 100 mM NaCl, 20 mM Tris-HCl pH 8.0
[5] = biological target: SHL from Populus trichocarpa (PtSHL), wild type (Populus trichocarpa); assay: ITC; Microcal PEAQ-ITC, 20 °C; 100 mM NaCl, 20 mM Tris-HCl pH 8.0; protein titrated by peptide
[6] = biological target: SHL from Populus trichocarpa (PtSHL), wild type (Populus trichocarpa); assay: ITC; PtSHL pre-saturated with 2-fold excess H3(1-15)K4me3 peptide, titrated by H3(20-36)K27me3 peptide; 20 °C, 100 mM NaCl, 20 mM Tris-HCl pH 8.0
PtSHL Q156A = biological target: T2, PtSHL Q156A (Populus trichocarpa); assay: ITC
T2 chain: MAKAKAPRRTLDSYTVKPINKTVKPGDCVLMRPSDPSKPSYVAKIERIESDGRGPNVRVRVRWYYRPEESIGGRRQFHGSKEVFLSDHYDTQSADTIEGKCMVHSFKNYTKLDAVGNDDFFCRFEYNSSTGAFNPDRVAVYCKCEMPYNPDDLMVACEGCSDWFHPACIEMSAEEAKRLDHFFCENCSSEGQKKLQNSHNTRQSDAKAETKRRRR

PtSHL Y148A = biological target: T3, PtSHL Y148A (Populus trichocarpa); assay: ITC
T3 chain: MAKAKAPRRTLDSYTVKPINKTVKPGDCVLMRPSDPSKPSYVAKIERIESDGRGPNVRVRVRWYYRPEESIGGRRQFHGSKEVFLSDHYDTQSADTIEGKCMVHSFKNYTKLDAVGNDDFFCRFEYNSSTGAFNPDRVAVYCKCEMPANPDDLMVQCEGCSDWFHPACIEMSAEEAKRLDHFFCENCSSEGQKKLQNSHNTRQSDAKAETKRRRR

[7] = biological target: B1; assay: ITC
H3K4me1 = biological target: T4, H3K4me1 (Arabidopsis thaliana); assay: ITC
T4 chain: ARTK(Me)QTARKSTGGKAY

H3K4me2 = biological target: T5, H3K4me2 (Arabidopsis thaliana); assay: ITC
T5 chain: ARTK(Me2)QTARKSTGGKAY

Chain of Arabidopsis SHORT LIFE (AtSHL), full length, tag removed (Arabidopsis) (Q9FEN9 whole entry): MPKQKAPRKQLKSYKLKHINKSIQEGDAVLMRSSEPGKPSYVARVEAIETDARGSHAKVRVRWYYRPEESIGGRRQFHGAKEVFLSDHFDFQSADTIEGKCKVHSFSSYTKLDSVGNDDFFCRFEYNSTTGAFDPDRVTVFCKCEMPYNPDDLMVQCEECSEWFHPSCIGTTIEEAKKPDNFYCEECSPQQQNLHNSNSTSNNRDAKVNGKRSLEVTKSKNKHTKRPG

Molecule: CC(C)C[C@H](N)C(=O)N[C@@H](C)C(=O)N[C@H](C(=O)N[C@@H](CCCCN)C(=O)N[C@@H](C)C(=O)N[C@@H](C)C(=O)N[C@@H](CCCNC(=N)N)C(=O)N[C@@H](CCCC[N+](C)(C)C)C(=O)N[C@@H](CO)C(=O)N[C@@H](C)C(=O)N1CCC[C@H]1C(=O)N[C@@H](C)C(=O)N[C@H](C(=O)NCC(=O)NCC(=O)N[C@H](C(=O)N[C@@H](CCCCN)C(=O)N[C@@H](Cc1ccc(O)cc1)C(=O)O)C(C)C)[C@@H](C)O)[C@@H](C)O [H3K27me3]
Kd (PtSHL D90A): NDB and abolished
Kd (PtSHL H88A): NDB and abolished
binding in histone peptide pulldown (full-length AtSHL [1]): capable of binding
N-value (PtSHL + H3K4me3): 0.818
Kd (PtSHL): 21.3 µM
binding on histone peptide microarray (full-length AtSHL [2]): preferentially binds; also recorded: strong binding affinity
Kd (PtSHL Y65A): NDB and abolished
Kd (PtSHL Y41A): NDB and abolished
Kd (PtSHL W63A): NDB and abolished

Kd [3]: 78.3 µM
Molecule: H3K27me1 peptide with an additional C-terminal tyrosine (ITC)

Kd [4]: 27.6 µM
Kd [5]: 20.6 µM
Molecule: H3(1-15)K4me3 peptide with an additional C-terminal tyrosine (ITC)

Kd [6]: 18.7 µM
Kd [5]: 21.3 µM
Kd [3]: 15.1 µM
Molecule: H3(20-36)K27me3 peptide with an additional C-terminal tyrosine (ITC)

Kd [3]: 30.8 µM
Molecule: H3K27me2 peptide with an additional C-terminal tyrosine (ITC)

Kd [5]: 16.9 µM
stoichiometry N [5]: 1.17
Molecule: H3(1-35)K4me3K27me3 peptide with an additional C-terminal tyrosine (ITC)

Kd (PtSHL Q156A): 66.1 µM
Kd (PtSHL Y148A): 44 µM
Molecule: ARTK(Me3)QTARKSTGGKAY [H3(1-15)K4me3 peptide with an additional C-terminal tyrosine (ITC)]

Kd [7]: 58.1 µM
Molecule: LATKAARK(Me)SAPATGGVKY [H3K27me1 peptide with an additional C-terminal tyrosine (ITC)]

Kd [7]: 28.9 µM
Molecule: LATKAARK(Me2)SAPATGGVKY [H3K27me2 peptide with an additional C-terminal tyrosine (ITC)]

Molecule: B1
Kd (H3K4me1): 67.1 µM
Kd (H3K4me2): 23.9 µM
